From US20100036106, “High-Affinity RNA Aptamer Molecule Against Glutathione-S-Transferase Protein” (NEC Soft, Ltd., published 2010)

B1: No. 3 clone RNA aptamer with 5' poly(A) (ssRNA)
RNA: GGUAGAUACGAUGGAUGGUUGUGUAAAGGUGGUCGUAUCCGCCGACAUGACGCGCAGCCAA
B2: No. 5 clone RNA aptamer with 5' poly(A) (ssRNA)
RNA: GGUAGAUACGAUGGACUAACUGCGCAAAUUACUCGUAUUAGCCGACAUGACGCGCAGCCAA
B3: No. 26 clone RNA aptamer with 5' poly(A) (ssRNA)
RNA: GGUAGAUACGAUGGAUACCGAAAAAUUAGUGUCGUUGACUGCAACAUGACGCGCAGCCAA

molecular target: Glutathione S-transferase (GST) (Schistosoma japonicum, UniProt P08515 P08515:2-218); assay: SPR; Kd fitted with BIA Evolution 3.1 but value only in figure; RNA immobilized via poly(A)/poly(dT); conditions: chain copies: 2 inferred
Sequence (P08515 2-218, one chain of several): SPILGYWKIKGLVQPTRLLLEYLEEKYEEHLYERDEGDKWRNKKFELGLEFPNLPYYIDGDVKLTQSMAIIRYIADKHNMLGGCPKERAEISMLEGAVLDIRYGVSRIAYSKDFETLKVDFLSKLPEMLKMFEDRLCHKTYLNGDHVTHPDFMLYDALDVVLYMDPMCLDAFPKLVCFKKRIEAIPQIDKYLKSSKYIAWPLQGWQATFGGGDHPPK
From the text: Synthetic biotinylated polydT (Hokkaido System Science) is allowed to bind to the surface of an SA BIACORE chip (Biacore). The single-stranded RNA molecules (RNA adaptor molecules) comprising polyA (Aₙ) added on the 5′-terminal side are annealed with the synthetic biotinylated polydT immobilized on the chip surface. As a result, the single-stranded RNA molecules (RNA adaptor molecules) are immobilized thereon via the hybrid bonding between the polydT and the polyA (Aₙ).
This chip on which the single-stranded RNA molecules (RNA adaptor molecules) are immobilized is utilized to measure the process of formation of complexes of the single-stranded RNA molecules (RNA adaptor molecules) and GST proteins and the process of dissociation thereof by use of a surface plasmon resonance detection apparatus. The results are analyzed to determine the equilibrium dissociation constants of the complexes.
Parameter fitting is conducted by use of BIA Evolution ver. 3.1 for the concentrations of the GST protein in the poured GST protein solutions and the time-dependent changes in signal intensity measured in this process, to thereby determine equilibrium dissociation constant KD.

| Binder | binding result |
| --- | --- |
| B1 | binds |
| B2 | binds |
| B3 | binds |
